{
  "source": "patent US20120283421A1",
  "molecular_target": "nine-person peanut-specific IgE antibody pool",
  "experiment": "competitive ELISA inhibition, pooled serum IgE on coated crude peanut",
  "data": [
    {"binder": "Ara h 2 (purified from peanut) (protein, 20% carbohydrate) QQWELQGDRRCQSQLERANLRPCEQHLMQKIQRDEDSYERDPYSPSQDPYSPSPYDRRGAGSSQHQERCCNELNEFENNQRCMCEALQQIMENQSDRLQGRQQEQQFKRELRNLPQQCGLRAPQRCDLDVESGGRDRY", "values": [
      {"measurement": "IC50", "value": 0.4, "unit": "ng/mL"}
    ]}
  ]
}
